{"source": "patent US20050037394", "about": "“Method for in vitro selection of 2'-substituted nucleic acids” (published 2005)", "key": {"IFN-gamma [1]": {"target": "T1, IFN-gamma (Homo sapiens, UniProt P01579 P01579:24-161)", "T1 sequence (P01579 24-161, one chain of several)": "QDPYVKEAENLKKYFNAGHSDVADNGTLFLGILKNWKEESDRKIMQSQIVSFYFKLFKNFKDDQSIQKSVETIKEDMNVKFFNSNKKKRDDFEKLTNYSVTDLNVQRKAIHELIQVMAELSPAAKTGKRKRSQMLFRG", "experiment": "filter; 1x DPBS, 0.1 mg/ml BSA; Table 21 gives 206", "details": "tags: R&D Systems, Minneapolis; chain copies: 2; label: 5'-32P"}, "IFN-gamma [2]": {"target": "T1, IFN-gamma", "experiment": "inhibition; ELISA day 2; text assigns ARC873 to F3 but printed sequence matches E3", "details": "tags: R&D Systems, Minneapolis; chain copies: 2; putative G4", "protocol": "(§1) IFN-γ ELISA: The following ELISA method was used to measure the ability of IFN-γ aptamers to inhibit hIFN-γ from binding to the IFNγ-R1 receptor. To capture the IFNγ-R1, 175 ng of IFNγ-R1 (R&D systems, Minneapolis, Minn.) in 100 μl of PBS (pH 7.4) was incubated in each well of a Nunc Maxisorb plate (Nunc, Rochester, N.Y.) for 2 hours at room temperature. The solution was discarded and the plate was washed 3 times with 200 μl of TBS-T (25 mM Tris-HCl pH 7.5, 150 mM NaCl and 0.01% Tween −20). The plate was then blocked with 200 μl of 5% nonfat dry milk in TBS-T for 30 minutes at room temperature. After blocking, the plate was washed 3 times with 200 μl of TBS-T. Then, 100 μl of various concentrations of aptamers mixed with 5 nmoles of IFN-γ (R & D Systems) were incubated in appropriate wells for 1.5 hours at room temperature. […] Subsequently, 100 μl of 2 N H₂SO₄ was added to stop the reaction and the plate was read in a SpectraMax 96 well plate reader at […].\n(§2) IFNγ-R1 Binding Inhibition with hIFN-γ Aptamers: Five full length and 2 minimized aptamers to IFN-γ were tested for receptor binding inhibition activity using the ELISA method described above. […] IC₅₀'s for the duplicate assays were calculated and are shown in Table 22 below along with Kd values for each of the respective aptamers."}, "IFN-gamma [3]": {"target": "T1, IFN-gamma", "experiment": "inhibition; IFN-gamma/IFN-gamma-R1 ELISA day 1; day 2 270 nM", "details": "tags: R&D Systems, Minneapolis; chain copies: 2; label: 5'-32P", "protocol": "as §1, §2"}, "IFN-gamma [4]": {"target": "T1, IFN-gamma", "experiment": "filter; 1x DPBS, 0.1 mg/ml BSA; Table 21 gives 169.28", "details": "tags: R&D Systems, Minneapolis; chain copies: 2; label: 5'-32P"}, "IFN-gamma [5]": {"target": "T1, IFN-gamma", "experiment": "filter; 1x DPBS, 0.1 mg/ml BSA; Table 21 gives 97", "details": "tags: R&D Systems, Minneapolis; chain copies: 2; label: 5'-32P"}, "IFN-gamma [6]": {"target": "T1, IFN-gamma", "experiment": "inhibition; IFN-gamma/IFN-gamma-R1 ELISA day 1; day 2 100 nM", "details": "tags: R&D Systems, Minneapolis; chain copies: 2; label: 5'-32P", "protocol": "as §1, §2"}, "IFN-gamma [7]": {"target": "T1, IFN-gamma", "experiment": "inhibition; IFN-gamma/IFN-gamma-R1 ELISA day 1; day 2 70 nM", "details": "tags: R&D Systems, Minneapolis; chain copies: 2; label: 5'-32P", "protocol": "as §1, §2"}, "IFN-gamma [8]": {"target": "T1, IFN-gamma", "experiment": "filter; 1x DPBS, 0.1 mg/ml BSA; Table 21 gives 167.31", "details": "tags: R&D Systems, Minneapolis; chain copies: 2; label: 5'-32P"}, "[9]": {"target": "T2, Complement C5 full length (Homo sapiens, UniProt P01031;P01031 P01031:19-673,P01031:678-1676)", "T2 sequence (P01031 19-673, chain 1 of 2)": "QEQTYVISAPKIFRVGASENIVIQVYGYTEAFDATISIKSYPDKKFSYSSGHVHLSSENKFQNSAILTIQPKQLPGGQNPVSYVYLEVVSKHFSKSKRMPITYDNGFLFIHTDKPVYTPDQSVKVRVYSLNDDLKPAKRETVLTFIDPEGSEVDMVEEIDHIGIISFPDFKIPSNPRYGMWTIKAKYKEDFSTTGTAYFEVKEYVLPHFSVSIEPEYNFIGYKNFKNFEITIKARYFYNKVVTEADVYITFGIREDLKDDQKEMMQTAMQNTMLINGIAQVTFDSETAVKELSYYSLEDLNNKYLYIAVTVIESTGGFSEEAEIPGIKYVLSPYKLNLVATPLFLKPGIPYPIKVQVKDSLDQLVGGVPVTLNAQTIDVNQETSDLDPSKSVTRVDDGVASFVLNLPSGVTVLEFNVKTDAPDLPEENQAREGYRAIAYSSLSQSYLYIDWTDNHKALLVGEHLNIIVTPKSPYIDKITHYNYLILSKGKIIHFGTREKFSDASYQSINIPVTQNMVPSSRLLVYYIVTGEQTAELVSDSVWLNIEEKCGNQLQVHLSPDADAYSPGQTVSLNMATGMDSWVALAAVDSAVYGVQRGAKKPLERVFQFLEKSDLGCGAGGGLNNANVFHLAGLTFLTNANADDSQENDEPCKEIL", "T2 sequence (P01031 678-1676, chain 2 of 2)": "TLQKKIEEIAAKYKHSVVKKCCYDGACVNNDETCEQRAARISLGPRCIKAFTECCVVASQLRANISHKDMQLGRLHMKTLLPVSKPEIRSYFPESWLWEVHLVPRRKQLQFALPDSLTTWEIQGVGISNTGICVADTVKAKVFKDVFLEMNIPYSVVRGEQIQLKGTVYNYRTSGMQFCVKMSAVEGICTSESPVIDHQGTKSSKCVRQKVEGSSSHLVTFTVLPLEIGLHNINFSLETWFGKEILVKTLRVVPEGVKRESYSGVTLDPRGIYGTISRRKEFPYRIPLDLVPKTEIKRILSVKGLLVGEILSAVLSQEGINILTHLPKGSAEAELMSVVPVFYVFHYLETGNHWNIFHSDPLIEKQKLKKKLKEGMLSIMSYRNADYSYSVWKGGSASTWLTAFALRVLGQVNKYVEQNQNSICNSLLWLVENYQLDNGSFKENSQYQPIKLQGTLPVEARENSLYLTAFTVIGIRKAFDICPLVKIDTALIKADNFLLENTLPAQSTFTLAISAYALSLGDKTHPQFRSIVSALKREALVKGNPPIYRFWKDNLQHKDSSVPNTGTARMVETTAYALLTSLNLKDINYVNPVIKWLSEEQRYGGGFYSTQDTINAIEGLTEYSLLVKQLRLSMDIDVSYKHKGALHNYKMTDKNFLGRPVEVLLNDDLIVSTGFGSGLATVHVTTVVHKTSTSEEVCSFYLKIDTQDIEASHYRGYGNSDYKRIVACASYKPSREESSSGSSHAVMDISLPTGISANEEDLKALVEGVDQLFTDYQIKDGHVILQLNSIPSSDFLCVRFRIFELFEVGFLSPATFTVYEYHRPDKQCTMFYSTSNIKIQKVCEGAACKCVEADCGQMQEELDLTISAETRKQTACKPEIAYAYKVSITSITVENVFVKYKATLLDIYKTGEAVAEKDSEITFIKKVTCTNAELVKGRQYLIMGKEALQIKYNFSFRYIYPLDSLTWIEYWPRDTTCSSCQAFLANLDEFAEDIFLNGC", "experiment": "filter; 1x DPBS, extent of binding 20%", "details": "tags: Quidel Corporation, San Diego"}, "[10]": {"target": "T2, Complement C5 full length", "experiment": "inhibition; 0.2% human serum, sheep erythrocytes, GVB++, 25 C", "details": "tags: Quidel Corporation, San Diego", "protocol": "Hemolysis Assay: The effect of the AMX221.E1 clone on the classical pathway of the complement system was analyzed using a hemolysis assay compared to both ARC186 (Anti-C5 aptamer, positive control) and unselected dRmY pool (negative control). In the assay of hemolytic inhibition, a solution of 0.2% whole human serum was mixed with antibody-coated sheep erythrocytes (Diamedix EZ Complement CH50 Test, Diamedix Corporation, Miami, Fla.) in the presence oftitrated AMX221.E1. The assay was run in veronal-buffered saline containing calcium, magnesium and 1% gelatin (GVB⁺⁺ complement buffer) and incubated for 1 hr at 25° C. After incubation the samples were centrifuged. The optical density at 415 nm (OD₄₁₅) of the supernatant was read. The inhibition of hemolysis activity is expressed as % hemolysis activity compared to control. The IC₅₀ of the clone was calculated to be about 30 nM."}, "VEGF [11]": {"target": "T3, VEGF (UniProt P15692-4 P15692-4:27-191)", "T3 sequence (P15692 other isoform, or with tags, fused parts or gaps)": "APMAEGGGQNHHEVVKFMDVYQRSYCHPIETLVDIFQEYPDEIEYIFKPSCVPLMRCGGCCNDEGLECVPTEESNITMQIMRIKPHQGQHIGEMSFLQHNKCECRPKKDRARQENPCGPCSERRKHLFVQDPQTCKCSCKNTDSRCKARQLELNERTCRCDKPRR", "experiment": "filter; dot-blot in PBS", "details": "chain copies: 2", "protocol": "(§3) Binding assays were performed with trace ³²P-body-labelled transcripts that were incubated with various protein concentrations in silanized wells, these were then passed through a sandwich of a nitrocellulose membrane over a nylon membrane. Protein-bound RNA is visualized on the NC membrane, unbound RNA on the nylon membrane. The proportion binding is then used to calculate affinity (see FIGS. 4, 5, and 6). The nomenclature “mGXG” indicates a substitution of 2′-OH G for 2′-OMe G at position “X”, as numbered sequentially from the 5′-terminus. Thus, mG7G ARC224 is ARC224 with a 2′-OH at position 7. ARC225 is ARC224 with 2′-OMe to 2′-OH substitutions at positions 7, 10, 14, 16, 19, 22 and 24. All constructs (initially identified by SELEX™) were generated by solid-phase chemical synthesis."}, "VEGF [12]": {"target": "T3, VEGF", "experiment": "FP; placeholder corrected: dot-blot nitrocellulose/nylon filter in PBS", "details": "chain copies: 2", "protocol": "as §3"}, "VEGF [13]": {"target": "T3, VEGF", "experiment": "competition; 125I-VEGF binding to HUVEC", "details": "chain copies: 2", "from_the_text": "FIG. 5 is a plot of ARC224 and ARC225 binding to VEGF. […] The supernatant was removed, the cells were washed, and bound VEGF was counted in a scintillation counter. ARC225 has the same sequence as ARC224 and 2′-OMe to 2′-OH substitutions at positions 7, 10, 14, 16, 19, 22 and 24 numbered from the 5′-terminus."}, "IFN-gamma [14]": {"target": "T1, IFN-gamma", "experiment": "inhibition; ELISA day 2; text assigns ARC872 to E3 but printed sequence matches F3", "details": "tags: R&D Systems, Minneapolis; chain copies: 2; putative G4", "protocol": "as §1, §2"}, "IFN-gamma [15]": {"target": "T1, IFN-gamma", "experiment": "inhibition; IFN-gamma/IFN-gamma-R1 ELISA day 1; day 2 190 nM", "details": "tags: R&D Systems, Minneapolis; chain copies: 2; label: 5'-32P", "protocol": "as §1, §2"}, "IFN-gamma [16]": {"target": "T1, IFN-gamma", "experiment": "filter; 1x DPBS, 0.1 mg/ml BSA; Table 21 gives 227.87", "details": "tags: R&D Systems, Minneapolis; chain copies: 2; label: 5'-32P"}}, "data": [{"binder": "ARC819 (AMX(192)_F3) (mixed, dRmY: deoxy A,G; 2'-OMe C,U (cDNA printed, T=U)) DNA: GGGAGAGGAGAGAACGTTCTACGGGCGGTTGGGGTCGGGGAGGATGGTACAGGGTCGATCGATCGATCATCGATG", "values": [{"measurement": "Kd", "setting": "IFN-gamma [1]", "value": 180, "unit": "nM"}]}, {"binder": "GGGUGGCUGGGGCAGGGGAGGUAGGUAGGG (mixed, dRmY: deoxy A,G; 2'-OMe C,U)", "note": "[ARC873]", "values": [{"measurement": "IC50", "setting": "IFN-gamma [2]", "value": 330, "unit": "nM"}]}, {"binder": "ARC820 (AMX(192)_D11) (mixed, dRmY: deoxy A,G; 2'-OMe C,U (cDNA printed, T=U)) DNA: GGGAGAGGAGAGAACGTTCTACGGGGAGGAGGGTGGGGTAGCAGGTGTGGCAGGTCGATCGATCGATCATCGATG", "values": [{"measurement": "IC50", "setting": "IFN-gamma [3]", "value": 280, "unit": "nM"}, {"measurement": "Kd", "setting": "IFN-gamma [4]", "value": 170, "unit": "nM"}]}, {"binder": "ARC821 (AMX(216)_A7) (mixed, dRmY: deoxy A,G; 2'-OMe C,U (cDNA printed, T=U)) DNA: GGGAGAGGAGAGAACGTTCTACGGGGGTCGTGGGAGTAAGGGGGTGTAGGTAGGTCGATCGATCGATCATCGATG", "values": [{"measurement": "Kd", "setting": "IFN-gamma [5]", "value": 140, "unit": "nM"}, {"measurement": "IC50", "setting": "IFN-gamma [6]", "value": 130, "unit": "nM"}]}, {"binder": "ARC789 (AMX(192)_A5) (mixed, dRmY: deoxy A,G; 2'-OMe C,U (cDNA printed, T=U)) DNA: GGGAGAGGAGAGAACGTTCTACGTTTGCGGTCAGGATGGGGTGGTGGGAGGTCGATCGATCGATCATCGATG", "values": [{"measurement": "IC50", "setting": "IFN-gamma [7]", "value": 40, "unit": "nM"}, {"measurement": "Kd", "setting": "IFN-gamma [8]", "value": 150, "unit": "nM"}]}, {"binder": "AMX221.E1 (mixed, dRmY: deoxy A,G; 2'-OMe C,U (cDNA printed, T=U)) DNA: GGGAGAGGAGAGAACGTTCTACCTTGGTTTGGCACAGGCATACATACGCAGGGGTCGATCGATCGATCATCGATG", "values": [{"measurement": "Kd", "setting": "[9]", "value": "~140", "unit": "nM"}, {"measurement": "IC50", "setting": "[10]", "value": "~30", "unit": "nM"}]}, {"binder": "AUGCAGUUUGAGAAGUCGCGCAU (ssRNA, 2'-OMe at all residues; 3'-inverted dT [2'-OMe at 1-23; 3'-inverted dT after nt 23 (not written in sequence)])", "note": "[ARC245]", "values": [{"measurement": "Kd", "setting": "VEGF [11]", "value": 2.1, "unit": "nM"}]}, {"binder": "ACGCAGUUUGAGAAGUCGCGCGU (ssRNA, 2'-OMe at all residues; 3'-inverted dT [2'-OMe at 1-23; 3'-inverted dT after nt 23 (not written in sequence); base pair swap at 2 (U>C) and 22 (A>G)])", "note": "[ARC259]", "values": [{"measurement": "Kd", "setting": "VEGF [12]", "value": 1.4, "unit": "nM"}]}, {"binder": "CGAUAUGCAGUUUGAGAAGUCGCGCAUUCG (ssRNA, 2'-OMe at all residues; 3'-inverted dT [2'-OMe at 1-30; 3'-inverted dT after nt 30 (not written in sequence)])", "note": "[ARC224]", "values": [{"measurement": "Kd", "setting": "VEGF [11]", "value": 3.9, "unit": "nM"}, {"measurement": "IC50", "setting": "VEGF [13]", "value": "~2", "unit": "nM"}]}, {"binder": "GGGCGGUUGGGGUCGGGGAGGAUGGUACAGGG (mixed, dRmY: deoxy A,G; 2'-OMe C,U)", "note": "[ARC872]", "values": [{"measurement": "IC50", "setting": "IFN-gamma [14]", "value": 200, "unit": "nM"}]}, {"binder": "ARC818 (AMX(192)_E3) (mixed, dRmY: deoxy A,G; 2'-OMe C,U (cDNA printed, T=U)) DNA: GGGAGAGGAGAGAACGTTCTACGGGTGGCTGGGGCAGGGGAGGTAGGTAGGGTCGATCGATCGATCATCGATG", "values": [{"measurement": "IC50", "setting": "IFN-gamma [15]", "value": 220, "unit": "nM"}, {"measurement": "Kd", "setting": "IFN-gamma [16]", "value": 180, "unit": "nM"}]}]}
